The source of these data is the MegaScale stability set (Tsuboyama et al. 2023).

First the molecules themselves.
B1: 2M8U (parent)
chain: TKAQVIEAFKVFDRDGNGYVTVDYLRKVLNELGDMMPADEIEEMIYEADPQNSGYVQYETFVGMLFL

The series covers variants of B1. In words: folding stability dG (cDNA display proteolysis); higher = more stable. Particulars: PBS, room temperature.
TKAQVIEAFKVFDRDGNGYVTVDYKRKVLNELGDMMPADEIEEMIYEADPQNSGYVQYETFVGMLFL [L25K]: the “folding stability dG” value was found to be 2.23 kcal/mol.
In the case of TKAQVIEAFKVFDRDGNGYVTVDYTRKVLNELGDMMPADEIEEMIYEADPQNSGYVQYETFVGMLFL [L25T] it was 2.65 kcal/mol.
In the case of TKAQVIEAFKVFDRDGNGYVTVDYPRKVLNELGDMMPADEIEEMIYEADPQNSGYVQYETFVGMLFL [L25P] it was 1.25 kcal/mol.
As for TKAQVIEAFKVFDRDGNGYVTVDYMRKVLNELGDMMPADEIEEMIYEADPQNSGYVQYETFVGMLFL [L25M], the “folding stability dG” value amounted to 2.69 kcal/mol.
In the case of TKAQVIEAFKVFDRDGNGYVTVDYFRKVLNELGDMMPADEIEEMIYEADPQNSGYVQYETFVGMLFL [L25F] it was 2.91 kcal/mol; in that of TKAQVIEAFKVFDRDGNGYVTVDYARKVLNELGDMMPADEIEEMIYEADPQNSGYVQYETFVGMLFL [L25A], 3.2 kcal/mol.
Consider TKAQVIEAFKVFDRDGNGYVTVDYDRKVLNELGDMMPADEIEEMIYEADPQNSGYVQYETFVGMLFL [L25D], for which the “folding stability dG” value came to 1.27 kcal/mol.
In the case of TKAQVIEAFKVFDRDGNGYVTVDYERKVLNELGDMMPADEIEEMIYEADPQNSGYVQYETFVGMLFL [L25E] it was 2.09 kcal/mol.
TKAQVIEAFKVFDRDGNGYVTVDYHRKVLNELGDMMPADEIEEMIYEADPQNSGYVQYETFVGMLFL [L25H]: the “folding stability dG” value came to 1.16 kcal/mol.
Consider TKAQVIEAFKVFDRDGNGYVTVDYQRKVLNELGDMMPADEIEEMIYEADPQNSGYVQYETFVGMLFL [L25Q], for which the “folding stability dG” value is 2.02 kcal/mol.
For the variant TKAQVIEAFKVFDRDGNGYVTVDYGRKVLNELGDMMPADEIEEMIYEADPQNSGYVQYETFVGMLFL [L25G], the “folding stability dG” value is 1.92 kcal/mol.
Take TKAQVIEAFKVFDRDGNGYVTVDYSRKVLNELGDMMPADEIEEMIYEADPQNSGYVQYETFVGMLFL [L25S]: the “folding stability dG” value turned out to be 1.72 kcal/mol.
Consider TKAQVIEAFKVFDRDGNGYVTVDYCRKVLNELGDMMPADEIEEMIYEADPQNSGYVQYETFVGMLFL [L25C], for which the “folding stability dG” value was determined as 2.88 kcal/mol.
Regarding TKAQVIEAFKVFDRDGNGYVTVDYRRKVLNELGDMMPADEIEEMIYEADPQNSGYVQYETFVGMLFL [L25R], the “folding stability dG” value turned out to be 2.26 kcal/mol.
Regarding TKAQVIEAFKVFDRDGNGYVTVDYIRKVLNELGDMMPADEIEEMIYEADPQNSGYVQYETFVGMLFL [L25I], the “folding stability dG” value stood at 3.14 kcal/mol.
Turning to TKAQVIEAFKVFDRDGNGYVTVDYVRKVLNELGDMMPADEIEEMIYEADPQNSGYVQYETFVGMLFL [L25V], the “folding stability dG” value is 3.01 kcal/mol.
For TKAQVIEAFKVFDRDGNGYVTVDYNRKVLNELGDMMPADEIEEMIYEADPQNSGYVQYETFVGMLFL [L25N], the “folding stability dG” value is 1.47 kcal/mol.
The value for TKAQVIEAFKVFDRDGNGYVTVDHLRKVLNELGDMMPADEIEEMIYEADPQNSGYVQYETFVGMLFL [Y24H] was 4.05 kcal/mol; that for TKAQVIEAFKVFDRDGNGYVTVDNLRKVLNELGDMMPADEIEEMIYEADPQNSGYVQYETFVGMLFL [Y24N] was 4.5 kcal/mol.
For TKAQVIEAFKVFDRDGNGYVTVDALRKVLNELGDMMPADEIEEMIYEADPQNSGYVQYETFVGMLFL [Y24A], the “folding stability dG” value was determined as 4.19 kcal/mol.
Turning to TKAQVIEAFKVFDRDGNGYVTVDELRKVLNELGDMMPADEIEEMIYEADPQNSGYVQYETFVGMLFL [Y24E], the “folding stability dG” value is 4.23 kcal/mol.
Take TKAQVIEAFKVFDRDGNGYVTVDTLRKVLNELGDMMPADEIEEMIYEADPQNSGYVQYETFVGMLFL [Y24T]: the “folding stability dG” value amounted to 4.42 kcal/mol.
TKAQVIEAFKVFDRDGNGYVTVDLLRKVLNELGDMMPADEIEEMIYEADPQNSGYVQYETFVGMLFL [Y24L]: the “folding stability dG” value turned out to be 4 kcal/mol.
Turning to TKAQVIEAFKVFDRDGNGYVTVDQLRKVLNELGDMMPADEIEEMIYEADPQNSGYVQYETFVGMLFL [Y24Q], the “folding stability dG” value turned out to be 4.33 kcal/mol.
In the case of TKAQVIEAFKVFDRDGNGYVTVDVLRKVLNELGDMMPADEIEEMIYEADPQNSGYVQYETFVGMLFL [Y24V] it was 4.38 kcal/mol.
Regarding TKAQVIEAFKVFDRDGNGYVTVDWLRKVLNELGDMMPADEIEEMIYEADPQNSGYVQYETFVGMLFL [Y24W], the “folding stability dG” value is 3.24 kcal/mol.
TKAQVIEAFKVFDRDGNGYVTVDFLRKVLNELGDMMPADEIEEMIYEADPQNSGYVQYETFVGMLFL [Y24F]: the “folding stability dG” value came to 3.51 kcal/mol.
For the variant TKAQVIEAFKVFDRDGNGYVTVDILRKVLNELGDMMPADEIEEMIYEADPQNSGYVQYETFVGMLFL [Y24I], the “folding stability dG” value came out at 4.54 kcal/mol.
Turning to TKAQVIEAFKVFDRDGNGYVTVDRLRKVLNELGDMMPADEIEEMIYEADPQNSGYVQYETFVGMLFL [Y24R], the “folding stability dG” value stood at 3.94 kcal/mol.
For the variant TKAQVIEAFKVFDRDGNGYVTVDKLRKVLNELGDMMPADEIEEMIYEADPQNSGYVQYETFVGMLFL [Y24K], the “folding stability dG” value was 3.82 kcal/mol.
Turning to TKAQVIEAFKVFDRDGNGYVTVDDLRKVLNELGDMMPADEIEEMIYEADPQNSGYVQYETFVGMLFL [Y24D], the “folding stability dG” value was 4.63 kcal/mol.
In the case of TKAQVIEAFKVFDRDGNGYVTVDGLRKVLNELGDMMPADEIEEMIYEADPQNSGYVQYETFVGMLFL [Y24G] it was 3.47 kcal/mol; in that of TKAQVIEAFKVFDRDGNGYVTVDSLRKVLNELGDMMPADEIEEMIYEADPQNSGYVQYETFVGMLFL [Y24S], 4.27 kcal/mol; in that of TKAQVIEAFKVFDRDGNGYVTVDCLRKVLNELGDMMPADEIEEMIYEADPQNSGYVQYETFVGMLFL [Y24C], 4.02 kcal/mol.
In the case of TKAQVIEAFKVFDRDGNGYVTVDPLRKVLNELGDMMPADEIEEMIYEADPQNSGYVQYETFVGMLFL [Y24P] it was 1.24 kcal/mol; in that of TKAQVIEAFKVFDRDGNGYVTVDMLRKVLNELGDMMPADEIEEMIYEADPQNSGYVQYETFVGMLFL [Y24M], 4.04 kcal/mol.
Consider TKAQVIEAFKVFDRDGNGYVRVDYLRKVLNELGDMMPADEIEEMIYEADPQNSGYVQYETFVGMLFL [T21R], for which the “folding stability dG” value worked out at 3.74 kcal/mol.
Take TKAQVIEAFKVFDRDGNGYVQVDYLRKVLNELGDMMPADEIEEMIYEADPQNSGYVQYETFVGMLFL [T21Q]: the “folding stability dG” value is 3.7 kcal/mol.
For the variant TKAQVIEAFKVFDRDGNGYVYVDYLRKVLNELGDMMPADEIEEMIYEADPQNSGYVQYETFVGMLFL [T21Y], the “folding stability dG” value turned out to be 3.38 kcal/mol.
Regarding TKAQVIEAFKVFDRDGNGYVSVDYLRKVLNELGDMMPADEIEEMIYEADPQNSGYVQYETFVGMLFL [T21S], the “folding stability dG” value came to 3.64 kcal/mol.
